Measurements as given in patent publication US20210188980A1 (SHANGHAI EPIMAB BIOTHERAPEUTICS, published 2021).

T1: human LAG-3 expressed on cells (human, UniProt P18627 23-525)
T1 construct: whole, on cells; also called HEK 293F cells expressing human LAG-3; T hybridoma-huLAG-3 cells
T1 sequence (looked up): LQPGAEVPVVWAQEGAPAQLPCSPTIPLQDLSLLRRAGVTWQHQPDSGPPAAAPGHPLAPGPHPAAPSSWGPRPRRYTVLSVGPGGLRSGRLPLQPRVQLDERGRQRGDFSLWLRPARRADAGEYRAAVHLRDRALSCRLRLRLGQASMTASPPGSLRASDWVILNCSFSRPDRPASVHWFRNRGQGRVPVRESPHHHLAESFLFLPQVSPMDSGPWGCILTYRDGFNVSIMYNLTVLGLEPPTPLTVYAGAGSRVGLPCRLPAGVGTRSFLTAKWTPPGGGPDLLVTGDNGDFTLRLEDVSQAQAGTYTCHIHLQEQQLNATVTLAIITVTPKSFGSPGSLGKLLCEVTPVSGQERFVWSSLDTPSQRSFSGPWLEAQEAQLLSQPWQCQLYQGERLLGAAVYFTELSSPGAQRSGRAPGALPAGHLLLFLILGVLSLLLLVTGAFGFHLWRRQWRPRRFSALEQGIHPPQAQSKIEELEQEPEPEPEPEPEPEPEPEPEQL

T2: recombinant human LAG-3-his protein (Novoprotein) (human, UniProt P18627 23-450)
T2 construct: Bought; also called huLAG-3; not shown: His tag
T2 sequence (looked up): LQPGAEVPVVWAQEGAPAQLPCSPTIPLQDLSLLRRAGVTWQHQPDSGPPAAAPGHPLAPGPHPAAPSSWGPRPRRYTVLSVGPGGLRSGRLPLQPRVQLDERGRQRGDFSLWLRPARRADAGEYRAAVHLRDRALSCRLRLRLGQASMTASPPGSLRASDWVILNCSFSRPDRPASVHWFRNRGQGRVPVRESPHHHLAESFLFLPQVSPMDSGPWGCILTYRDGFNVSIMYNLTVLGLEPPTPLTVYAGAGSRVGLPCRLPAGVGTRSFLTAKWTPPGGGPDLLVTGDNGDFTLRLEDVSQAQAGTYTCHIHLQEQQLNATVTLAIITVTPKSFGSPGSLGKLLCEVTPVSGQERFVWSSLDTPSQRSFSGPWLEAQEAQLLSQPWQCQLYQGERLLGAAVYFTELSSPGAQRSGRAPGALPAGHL


Assays:
[1] = target: T3, human LAG-3 ECD/Fc fusion protein (human); test: ELISA, coated huLAG-3 ECD/Fc
T3 construct: also called HuLAG-3 ECD/Fc
Method: The supernatants of hybridoma clones were primarily screened by ELISA. Briefly, 50 μl/well of […] human LAG-3 ECD/Fc in NaHCO₃ were directly coated in each well of 96-well plate overnight. Plates were washed 3 times with 1×PBST, 300 μl per well. After blocking with 1% BSA in PBST at 250 μl per well and incubating at room temperature for 1 hour, the hybridoma supernatants were added at 50 μl per well and incubated at 37° C. for 1 hour. After washing, an HRP-linked goat anti-mouse IgG Fc secondary antibody (Cat. No. A0168, Sigma) was added at 100 μl/well and the plates were incubated at room temperature for 1 hour. TMB reagent (InnoReagents) was used to detect and develop the ELISA signal at 100 μl/well for 15 minutes, the reaction was stopped with 1 Normal HCL. The plates were read with a plate reader (SpectraMax® M5e, Molecular Devices, USA) at a wavelength of 450 nm. The ELISA-positive antibody producer clones were further verified by FACS analysis using methods similar to Example 1.4, above, except that stable HEK 293F cell lines expressing either human LAG-3 or cynomolgus LAG-3 were used. Hybridomas producing LAG-3 binding activity were selected and further characterized in a receptor blocking assay (RBA).
A binding ELISA was performed in the same way as described in Example 7.2 above. Each purified antibody was 10-fold serially diluted. After blocking of a 96-well assay plate with wells containing immobilized LAG-3 ECD/Fc fusion protein targets, the purified antibody samples with diluted concentrations were added to wells of the assay plate. The HRP-linked anti-mouse IgG antibody (A0168, Sigma) and TMB reagent were used to detect and develop the ELISA signal, which were read on a SpectraMax M5e plate reader at wavelength of 450 nm. Curves were fitted using GraphPad software, and EC50 values were calculated. Similarly, a RBA was also performed as described in Example 7.3 with titrated, purified antibodies, and maximum inhibition percentages and IC50 values were determined.

[2] = target: T3, human LAG-3 ECD/Fc fusion protein; test: FACS RBA, huLAG-3 ECD/Fc on Raji; competitor MHC Class II
Method: Supernatants displaying LAG-3 specific activity were tested for the ability to block LAG-3 receptor binding to MHC Class II. Raji human B cell lymphoblasts express high levels of MCH Class II and were used as binding targets for LAG-3 ECD/Fc proteins described above. Briefly, Raji cells were harvested and resuspend in FACS buffer and plated in 96-well plates (2×10⁵ cells/well). Anti-LAG-3 hybridoma supernatants were mixed with soluble LAG-3 ECD/Fc and the mixture was added to wells at a final volume of 100 μl/well. After adding the mixture to cells, the plates were incubated at room temperature for 30 minutes. After washing twice with PBS, the cells were incubated with anti-human IgG Alexa Fluor® 488 secondary antibody at 4° C. for 1 hour, washed twice with PBS, then fluorescence was measured on a flow cytometer.
Purified anti-LAG-3 antibodies also were tested in a RBA in the same manner as described in Example 7.3. Antibodies were also tested in an antigen-specific T cell activation assay, as follows: A huLAG-3 expressing murine T hybridoma cell line was generated to order by ChemPartner (Shanghai, CN). Mouse splenocytes from the same strain of mice were used as effector cells. The hybridoma expressing the huLAG-3 receptor protein is capable of binding to MHC Class II-positive mouse splenocytes, with inhibitory effect via engagement of Class II. The assay tests for anti-LAG-3 antibody-mediated reversal of the inhibitory effect, as measured by increased production of IL-2. Mouse spleenocytes were harvested from 6-8 week-old female C57BL/6 mice, red blood cells were lysed using Red Blood Cell Lysis Buffer (Sigma-Aldrich; R7757) according to the maker's instructions. Next, 50 μl T hybridoma-huLAG-3 cells (2×10⁶ cells/ml) were seeded in each well of a 96-well culture plate, and then a series of anti-LAG-3 monoclonal antibodies in solution at 50 μl/well were added and incubated at 37° C. for 30 min. Mouse splenocytes (4×10⁶ cells/ml) and the antigen (20 μg/ml) were mixed and incubated at 37° C. for 30 min. The mixture (100 μl/well) was added into each well that was already seeded with T hybridoma-huLAG-3 cells and anti-LAG-3 mAbs. The mixture of antibodies, T hybridoma-huLAG-3 cells, mouse splenocytes, and the antigen was cultured for 3 days.

[3] = target: T1, human LAG-3 expressed on cells; test: FACS, HEK 293F huLAG-3 cells
Method: (§1) FAGS analysis was performed using methods similar to Example 1.4, above, except that stable HEK 293F cell lines expressing either human LAG-3 cynomolgus LAG-3 were used. LAG-3 expressing cells were charged at 2×10⁴ cell per well into 96-well assay round-bottomed assay plates (Cat. No. 3799; Corning) and stained with purified anti-LAG-3 antibodies. LAG-3 antibodies were detected with AlexaFluor® Donkey anti-Mouse Ig (H+L) Highly Cross-Adsorbed Secondary Antibody (Cat. No. A21202; Invitrogen), and cell fluorescence was monitored using a flow cytometer. The data were processed by GraphPad software, and EC50 values were calculated.

[4] = target: T1, human LAG-3 expressed on cells; test: cell-based or functional assay
[5] = target: T4, cynomolgus LAG-3 expressed on HEK 293F cells (cynomolgus); test: FACS, HEK 293F cynoLAG-3 cells
T4 construct: whole, on cells
Method: as §1

[6] = target: T2, recombinant human LAG-3-his protein …; test: BLI Octet, Ab on AHC sensor, huLAG-3-his; test group 4
Method: (§2) All 18 humanized antibodies (Table 34) and a chimeric antibody having the parental murine VH and VL domains (mAb747c) were ranked by dissociation rate constant (koff). Briefly, antibodies were characterized for affinities and binding kinetics by Octet®RED96 biolayer interferometry (Pall ForteBio LLC). Antibodies were captured by Anti-hIgG Fc Capture (AHC) Biosensors (Pall) at a concentration of 100 nM for 30 seconds. Sensors were then dipped into running buffer (1× pH7.2 PBS, 0.05% Tween 20, 0.1% BSA) for 60 seconds to check baseline. Binding was measured by dipping sensors into a single concentration of recombinant human LAG-3-his protein (Novoprotein). Dissociation was followed by dipping sensors into running buffer for 1200 seconds. The association and dissociation curves were fitted to a 1:1 Langmuir binding model using FortéBio Data Analysis software (Pall). In each test group, the off-rates of antibodies were able to be compared with that of mAb747c. The off-rate ratios were calculated by the off-rate of antibody to that of mAb747c of its group and were compared all together. The lower the ratio was, the higher was the affinity of the antibody.

[7] = target: T2, recombinant human LAG-3-his protein …; test: BLI Octet, Ab on AHC sensor, huLAG-3-his; test group 2
Method: as §2, with “9” for “18”, “25)” for “34)”, “Octet RED96” for “Octet®RED96”, “FortéBio” for “ForteBio”, “Anti-HIgG” for “Anti-hIgG”, “(Pall).” for “(Pall). In each test group, the off-rates of antibodies were able to be compared with that of mAb747c. The off-rate ratios were calculated by the off-rate of antibody to that of mAb747c of its group and were compared all together. The lower the ratio was, the higher was the affinity of the antibody.”
The seven Fab clones were converted to full IgG proteins. Briefly, the VH and VL genes were produced synthetically and then cloned into vectors containing coding sequences for the human IgG1 and human kappa constant domains, respectively. The heavy chain and cognate light chain plasmids were co-transfected into HEK 293E cells, individually. After approximately six days of post-transfection cell culture, the supernatants were harvested and subjected to Protein A affinity chromatography. The affinity of purified antibodies was ranked by Octet® RED96 biolayer interferometry (see, Example 9.1, supra).

| EC50 [1] | IC50 [2] | Max. Inhib. (%) [2] | EC50 [3] | Max-MFI [3] | Max IL-2 [4] | EC50 [5] | Max-MFI [5] | koff [6] | off-rate ratio to that of mAb747c [6] | koff [7] | off-rate ratio to that of mAb747c [7] | Binder |
| --- | --- | --- | --- | --- | --- | --- | --- | --- | --- | --- | --- | --- |
| 0.19 nM | 10.8 nM | 96.5% | 9.5 nM | 135 MFI | 612 pg/mL | 67 nM | 37.8 MFI |  |  |  |  | mAb744 (antibody, V domains shown, murine hybridoma anti-LAG-3 mAb; also called rnAb744) VH: QVQLQQSGAELVRPGTSVTLSCKASGYTFTDYEMHWMKQTPVHGLEWIGAIDPATGGTAYNQKFKGKAILTADKSSSTAYMDFRSLTSEDSAVYYCIRWGTTVFPYWGQGTLVTVS VL: DVVLTQTPLSLPVNIGDQASISCKSTKSLLNSDGFTYLDWYLQKPGQSPQLLIYLVSNRFSGVPDRFSGSGSGTDFTLKISRVEAEDLGVYYCFQSNYLPWTFGGGTKLEIK |
| 0.24 nM | 4.8 nM | 96.1% | 13.4 nM | 73.1 MFI | 539 pg/mL | 79.6 nM | 31.9 MFI |  |  |  |  | mAb748 (antibody, V domains shown, murine hybridoma anti-LAG-3 mAb) VH: EVQMQQSGAELVRPGASVKLSCTVSGFNIKDDYMHWVKQRPEQGLEWIGWIDPENGDTEYASKFQGKATITADTSSNTAYLQLNSLTSEDTAVYYCTYFDYWGQGTTLTVSS VL: not shown |

Continued, binder first:

| Binder | EC50 [1] | IC50 [2] | Max. Inhib. (%) [2] | EC50 [3] | Max-MFI [3] | Max IL-2 [4] | EC50 [5] | Max-MFI [5] | koff [6] | off-rate ratio to that of mAb747c [6] | koff [7] | off-rate ratio to that of mAb747c [7] |
| --- | --- | --- | --- | --- | --- | --- | --- | --- | --- | --- | --- | --- |
| mAb742 (antibody, V domains shown, murine hybridoma anti-LAG-3 mAb) VH: QGQLQQSGAELVRPGASVTLSCKASGYTFNDYEMHWVKQTPVHGLEWIGAIDPETGGTAYNQKFKGKAILTADKSSSTAYMELRSLTSEDSAVYYCIRWGSTVFPYWGQGTLVTVS VL: DGVLTQTPLSLPVNIGDQASISCKSTKSLLNSDGFTYLDWYLQKPGQSPQLLIYLVSNRFSGVPDRFSGSGSGTDFTLKISRVEAEDLGVYYCFQSNYLPWTFGGGTKLEIK | 0.22 nM | 3.84 nM | 96.5% | 2.8 nM | 103 MFI | 733 pg/mL | 56.4 nM | 48.5 MFI |  |  |  |  |
| HumAb747-59 (antibody, human IgG1, V domains shown, humanized mAb747; human IgG1/kappa constant domains) VH: EVQLVQSGAEVKKPGATVKLSCTASDFNIKDDYMHWVKQRPEQGLEWIGWIVPENGNTEYASKFQGRATITADTSTNTAYLELSSLRSEDTAVYYCTVYGDYWGQGTTVTVSS VL: DIQMTQSPSSLSASVGDRVTITCRASQEISGYLSWLQQKPGGAIKRLIYAASTLDSGVPSRFSGSRSGSDYTLTISSLQPEDFADYYCLQYASYPLTFGQGTKLELK |  |  |  |  |  |  |  |  | 0.0012 s⁻¹ | 226% |  |  |
| D1-70-IgG (antibody, V domains shown, human IgG1/kappa constant domains) VH: EVQLVQSGAEVKKPGASVKVSCKASGFNIKDDYMHWVRQAPGQGLEWIGWIVPRNGNTMYASKFQGRVTITADTSINTAYMELSRLRSDDTAVYYCTVYGDYWGQGTTVTVSS VL: DIQMTQSPSSLSASVGDRVTINCRASQEISGYLSWLQQKPEGTIKRLIYAASTLDLGVPSRFSGSRSGSDYTLTISSLQPEDFATYYCLQYASYPLTFGGGTKVEIK |  |  |  |  |  |  |  |  |  |  | 0.0026 s⁻¹ | 160% |
